Assays:
Test in all cases: cell-based or functional assay
[1] = target: HIV-1 Env of isolate 92TH021 (clade AE), on pseudovirus (HIV-1)
[2] = target: HIV-1 Env of isolate QH0692.42 (subtype B pseudovirus) (HIV-1)
[3] = target: HIV-1 Env of isolate 98IN022 (HIV-1)
[4] = target: aMLV envelope, on pseudovirus (negative control virus)
[5] = target: HIV-1 Env of isolate MGRM-AE-008 (HIV-1)
[6] = target: HIV-1 Env of isolate 92UG114 (pseudovirus) (HIV-1)
[7] = target: HIV-1 Env of isolate 92UG046 (pseudovirus) (HIV-1)
[8] = target: HIV-1 Env of isolate MGRM-D-003 (pseudovirus) (HIV-1)
[9] = target: HIV-1 Env of pseudovirus isolate MGRM-G-025 (HIV-1)
[10] = target: HIV-1 MGRM-C-028 Env (pseudovirus, clade C) (HIV-1)
[11] = target: HIV-1 93UG077 Env (pseudovirus) (HIV-1)
[12] = target: HIV-1 MGRM-C-026 Env (pseudovirus, clade C) (HIV-1)
[13] = target: HIV-1 92RW020 Env (pseudovirus, clade A) (HIV-1)
[14] = target: HIV-1 92UG024 envelope glycoprotein (Env) on pseudovirus (HIV-1)
[15] = target: HIV-1 Env of isolate MGRM-F1-016 (HIV-1)
[16] = target: HIV-1 NL43 Env (pseudovirus, clade B) (HIV-1)
[17] = target: HIV-1 Env of isolate 98CN009 (CRF07 BC) (HIV-1 isolate 98CN009)
[18] = target: HIV-1 Env of pseudovirus MGRM-Chronic-B-011 (HIV-1)
[19] = target: HIV-1 Env of pseudovirus MGRM-AG-008 (clade CRF_AG) (HIV-1)
[20] = target: HIV-1 Env of isolate 97ZA012 (clade C) (HIV-1 isolate 97ZA012)
[21] = target: HIV-1 Env of pseudovirus MGRM-G-001 (clade G) (HIV-1)
[22] = target: HIV-1 Env of pseudovirus MGRM-F1-017 (HIV-1)
[23] = target: HIV-1 IAVI-C22 envelope glycoprotein (Env) on pseudovirus (HIV-1)
[24] = target: HIV-1 Env of pseudovirus MGRM-G-004 (clade G) (HIV-1)
[25] = target: HIV-1 Env of isolate MGRM-D-016 (clade D pseudovirus) (HIV-1)
[26] = target: HIV-1 Env of pseudovirus MGRM-F1-016 (HIV-1)
[27] = target: HIV-1 Env of isolate MGRM-D-020 (clade D pseudovirus) (HIV-1)
[28] = target: HIV-1 envelope glycoprotein (Env) of isolate MGRM-A-005, clade A (HIV-1)
[29] = target: HIV-1 envelope glycoprotein (Env) of isolate MGRM-A-013, clade A (HIV-1)
[30] = target: HIV-1 Env of pseudovirus MGRM-F1-022 (HIV-1)
[31] = target: HIV-1 Env of isolate 92UG046 (clade D pseudovirus) (HIV-1)
[32] = target: HIV-1 Env of pseudovirus MGRM-Chronic-B-012 (HIV-1)
[33] = target: HIV-1 Env of pseudovirus MGRM-F1-010 (HIV-1)

Chain of 1443_C16 (PG16) (TCN-116) (antibody) (VH): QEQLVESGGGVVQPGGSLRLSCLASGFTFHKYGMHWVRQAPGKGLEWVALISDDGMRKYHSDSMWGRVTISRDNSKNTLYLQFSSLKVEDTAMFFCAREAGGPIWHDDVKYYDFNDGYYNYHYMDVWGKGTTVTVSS
Chain of 1443_C16 (PG16) (TCN-116) (antibody) (VL): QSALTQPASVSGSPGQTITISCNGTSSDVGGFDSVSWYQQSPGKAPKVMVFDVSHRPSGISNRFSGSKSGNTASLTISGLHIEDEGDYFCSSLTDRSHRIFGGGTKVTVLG

Substance | IC50, pseudovirus neutralization [1] | IC50 (µg/mL), pseudovirus neutralization [2] | IC50 (µg/ml), pseudovirus neutralization [17] | IC50 (µg/ml), pseudovirus neutralization [18] | IC50 [19] | IC50 (µg/ml), pseudovirus neutralization [20] | IC50 [21] | IC50 (µg/ml), pseudovirus neutralization [22] | IC50, pseudovirus neutralization [23] | IC50 [24] | IC50 (µg/ml), pseudovirus neutralization [25] | IC50 (µg/ml), pseudovirus neutralization [26] | IC50 (µg/ml), pseudovirus neutralization [27] | IC50 (µg/ml), pseudovirus neutralization [28] | IC50 (µg/ml), pseudovirus neutralization [29] | IC50, pseudovirus neutralization [14] | IC50 (µg/ml), pseudovirus neutralization [30] | IC50 (µg/ml), pseudovirus neutralization [31] | IC50 (µg/ml), pseudovirus neutralization [32] | IC50 (µg/ml), pseudovirus neutralization [33] | further results
4858_P08 (PGT-123) (antibody) | > 10 µg/mL | 0.158 µg/mL |  |  |  |  |  |  |  |  |  |  |  |  |  |  |  |  |  |  | neutralization IC50 [3]: 0.011 µg/mL; IC50, pseudovirus neutralization [4]: > 10 µg/mL; IC50 [5]: > 50 µg/mL; IC50, pseudovirus neutralization [6]: 0.005 µg/mL; IC50, pseudovirus neutralization [7]: > 50 µg/mL; IC50, pseudovirus neutralization [8]: 3.74 µg/mL; IC50 (µg/mL), pseudovirus neutralization [9]: 0.046 µg/mL; IC50 neutralization [10]: 0.443 µg/mL; neutralization IC50 (pseudovirus) [11]: 0.0303 µg/mL; IC50 neutralization [12]: 0.0031 µg/mL; IC50 neutralization [13]: 0.0038 µg/mL; neutralization IC50 [14]: > 10 µg/mL; neutralization IC80 [14]: > 10 µg/mL; neutralization IC90 [14]: > 10 µg/mL; neutralization IC95 [14]: > 10 µg/mL; IC50 (µg/mL), pseudovirus neutralization [15]: 4.95 µg/mL; IC50 neutralization [16]: > 10 µg/mL
2G12 (antibody) |  |  | > 50 µg/mL | > 50 µg/mL | > 50 µg/mL | > 50 µg/mL | > 50 µg/mL | > 50 µg/mL | > 50 µg/mL | > 50 µg/mL | > 50 µg/mL | > 50 µg/mL | > 50 µg/mL | > 50 µg/mL | > 50 µg/mL | 0.59 µg/mL | > 50 µg/mL | > 50 µg/mL | 0.22 µg/mL |  | 
5123_A06 (PGT-125) (antibody) | 0.0066 µg/mL | 0.048 µg/mL |  |  |  |  |  |  |  |  |  |  |  |  |  |  |  |  |  |  | neutralization IC50 [3]: 22.1 µg/mL; IC50, pseudovirus neutralization [4]: > 10 µg/mL; IC50 [5]: > 50 µg/mL; IC50, pseudovirus neutralization [6]: 0.349 µg/mL; IC50, pseudovirus neutralization [7]: > 50 µg/mL; IC50, pseudovirus neutralization [8]: 0.065 µg/mL; IC50 (µg/mL), pseudovirus neutralization [9]: > 50 µg/mL; IC50 neutralization [10]: 5.78 µg/mL; neutralization IC50 (pseudovirus) [11]: 0.0262 µg/mL; IC50 neutralization [12]: 0.0106 µg/mL; IC50 neutralization [13]: 0.0028 µg/mL; IC50 (µg/mL), pseudovirus neutralization [15]: > 50 µg/mL; IC50 neutralization [16]: > 10 µg/mL
5141_B17 (PGT-126) (antibody) | 0.115 µg/mL | 0.048 µg/mL |  |  |  |  |  |  |  |  |  |  |  |  |  | > 10 µg/mL |  |  |  |  | neutralization IC50 [3]: 0.279 µg/mL; IC50, pseudovirus neutralization [4]: > 10 µg/mL; IC50 [5]: > 50 µg/mL; IC50, pseudovirus neutralization [6]: 0.038 µg/mL; IC50, pseudovirus neutralization [7]: > 50 µg/mL; IC50, pseudovirus neutralization [8]: 0.021 µg/mL; IC50 (µg/mL), pseudovirus neutralization [9]: 17.1 µg/mL; IC50 neutralization [10]: 0.283 µg/mL; neutralization IC50 (pseudovirus) [11]: 0.0256 µg/mL; IC50 neutralization [12]: 0.0076 µg/mL; IC50 neutralization [13]: 0.0046 µg/mL; IC80 (pseudovirus neutralization) [14]: > 10 µg/mL; IC90 (pseudovirus neutralization) [14]: > 10 µg/mL; IC95 (pseudovirus neutralization) [14]: > 10 µg/mL; IC50 (µg/mL), pseudovirus neutralization [15]: > 50 µg/mL; IC50 neutralization [16]: > 10 µg/mL
1443_C16 (PG16) (TCN-116) (antibody) |  |  | 5.76 µg/mL | > 50 µg/mL | 0.002 µg/mL | 2.55 µg/mL | 0.15 µg/mL | > 50 µg/mL | 0.0687 µg/mL | > 50 µg/mL | 0.02 µg/mL | 1.12 µg/mL | 16.3 µg/mL | 0.09 µg/mL | 0.09 µg/mL | > 50 µg/mL | 0.08 µg/mL | 1.42 µg/mL | 3.74 µg/mL | 0.01 µg/mL | 
2F5 (antibody) |  |  | > 50 µg/mL | 0.81 µg/mL | 0.54 µg/mL | > 50 µg/mL | 4.1 µg/mL | > 50 µg/mL | > 50 µg/mL | > 50 µg/mL | 9.85 µg/mL | 21.5 µg/mL | > 50 µg/mL | 5.7 µg/mL | 0.66 µg/mL | 1.27 µg/mL | 1.26 µg/mL | > 50 µg/mL | 17.6 µg/mL | 14.6 µg/mL | 
1495_C14 (PGC14) (antibody) |  |  | 43 µg/mL | > 50 µg/mL | 45 µg/mL | > 50 µg/mL | > 50 µg/mL | > 50 µg/mL | 9.5 µg/mL | > 50 µg/mL | > 50 µg/mL | > 50 µg/mL | > 50 µg/mL | > 50 µg/mL | > 50 µg/mL | > 50 µg/mL | > 50 µg/mL | > 50 µg/mL | > 50 µg/mL | > 50 µg/mL | 
4E10 (antibody) |  |  | 2.46 µg/mL | 1.07 µg/mL | 1.48 µg/mL | 4.7 µg/mL | 2.04 µg/mL | 4.92 µg/mL | 1.02 µg/mL | 1.47 µg/mL | 15.4 µg/mL | 7.61 µg/mL | > 50 µg/mL | 4.09 µg/mL | 1.46 µg/mL | 1.32 µg/mL | 1.01 µg/mL | 12.2 µg/mL | 48 µg/mL | 3.69 µg/mL | 
b12 (antibody) |  |  | 1.52 µg/mL | 2.11 µg/mL | > 50 µg/mL | > 50 µg/mL | > 50 µg/mL | > 50 µg/mL | 3.6 µg/mL | > 50 µg/mL | 1.12 µg/mL | > 50 µg/mL | > 50 µg/mL | 3.64 µg/mL | 7.04 µg/mL | 49.1 µg/mL | > 50 µg/mL | 0.07 µg/mL | > 50 µg/mL | > 50 µg/mL | 

From patent publication US20250320281A1
